This experiment concerns the target UBE2D2 (wild type) (UniProt P62837 1-147). The experiment can be described thus: ITC. Background: Isothermal titration calorimetry measures the heat released or taken up as one component is titrated into another.

Sequence of UBE2D2 (wild type) (P62837 whole entry): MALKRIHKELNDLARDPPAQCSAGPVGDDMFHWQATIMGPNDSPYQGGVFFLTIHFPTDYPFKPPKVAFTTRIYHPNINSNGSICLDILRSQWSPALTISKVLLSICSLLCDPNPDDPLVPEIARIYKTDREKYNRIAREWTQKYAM

B1: PHF7 (mPHF7 28–307) (domain or fragment)
chain: SSSPVCLLCLQEPGDPEKLGEFLQKDNLCVHYFCLILSSRLPQKGQPNRGLHGFMPEDIKREAVRASKKICFVCKKKGAAIRCQNDQCVQNFHLPCGQERGCLSQFFGEYKSYCRKHRPTQNIHQGSLGEESCVLCCENLSRTSVENIQSPCCSQAIYHRKCIQKYAHTSAKHFFKCPQCNNREEFPQEMLRMGIHIPDRDAAWELEPGAFSELYQRYRHCDAPICLYEQGRDSFEDEGRWRLILCATCGSHGTHRDCSSLRPNSKKWECNECLPASTTS
modifications: RED-NHS dye label (in the MST assay only)
In the case of B1, the binding result is on record as “binds”.
